From JP2012161321A come the findings set out here.

Substitutions are numbered along the chain they refer to.

The target in experiment [1] is Muc1ムチン bearing the CA6 sialoglycotope (DS6 antigen), as expressed by CA6-positive human tumour cell lines (human) (UniProt P15941). Briefly: cell-based or functional assay.
Experiment [2] has the same target. Put plainly: flow cytometry on Caov-3 cells, apparent Kd (Fig. 20). In general terms: Flow cytometry measures light scatter and fluorescence of single cells or particles in a stream.
Experiment [3] shares this target. Put plainly: flow cytometry competition; competitor 2 nM biotin-muDS6, streptavidin-DTAF (Fig. 19).
Experiment [4] has the same target. Briefly: flow cytometry, direct binding to KB cells, apparent Kd (Fig. 18).

Sequence of UniProt P15941 (P15941 24-1255): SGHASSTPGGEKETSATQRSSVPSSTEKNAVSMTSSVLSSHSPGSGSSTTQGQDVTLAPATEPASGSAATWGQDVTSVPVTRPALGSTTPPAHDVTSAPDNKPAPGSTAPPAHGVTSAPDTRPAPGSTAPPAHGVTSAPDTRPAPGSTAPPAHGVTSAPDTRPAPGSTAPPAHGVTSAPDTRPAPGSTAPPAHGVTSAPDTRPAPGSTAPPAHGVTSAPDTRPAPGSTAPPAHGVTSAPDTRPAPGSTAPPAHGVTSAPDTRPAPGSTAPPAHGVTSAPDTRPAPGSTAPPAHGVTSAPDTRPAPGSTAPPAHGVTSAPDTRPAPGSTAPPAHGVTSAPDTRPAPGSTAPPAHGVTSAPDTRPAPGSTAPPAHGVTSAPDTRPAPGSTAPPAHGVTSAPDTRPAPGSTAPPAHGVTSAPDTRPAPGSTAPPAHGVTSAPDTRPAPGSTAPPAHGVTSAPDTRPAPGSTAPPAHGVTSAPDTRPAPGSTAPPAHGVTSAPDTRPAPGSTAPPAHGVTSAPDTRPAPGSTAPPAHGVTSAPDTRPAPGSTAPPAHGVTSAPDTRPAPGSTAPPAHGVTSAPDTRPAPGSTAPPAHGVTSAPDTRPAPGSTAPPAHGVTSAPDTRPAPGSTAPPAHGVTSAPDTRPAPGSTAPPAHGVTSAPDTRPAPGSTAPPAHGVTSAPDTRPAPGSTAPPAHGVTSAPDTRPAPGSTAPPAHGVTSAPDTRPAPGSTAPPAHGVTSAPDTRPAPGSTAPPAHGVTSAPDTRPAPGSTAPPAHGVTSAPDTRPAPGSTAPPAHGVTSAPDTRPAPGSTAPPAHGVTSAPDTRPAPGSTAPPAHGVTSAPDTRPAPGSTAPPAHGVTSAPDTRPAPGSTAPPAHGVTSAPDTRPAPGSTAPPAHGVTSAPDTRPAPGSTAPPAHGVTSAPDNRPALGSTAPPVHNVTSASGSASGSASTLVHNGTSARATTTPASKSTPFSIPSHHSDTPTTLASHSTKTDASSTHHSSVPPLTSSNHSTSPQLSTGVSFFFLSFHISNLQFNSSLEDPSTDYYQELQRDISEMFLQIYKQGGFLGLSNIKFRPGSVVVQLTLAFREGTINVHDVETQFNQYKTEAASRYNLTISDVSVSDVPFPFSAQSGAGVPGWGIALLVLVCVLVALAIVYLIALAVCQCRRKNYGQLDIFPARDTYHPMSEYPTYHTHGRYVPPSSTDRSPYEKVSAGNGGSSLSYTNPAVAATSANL

B1: muDS6−DM1細胞傷害性コンジュゲート (muDS6-SPP-DM1) (antibody, from another filing, V domains shown)
VH: QAYLQQSGAELVRSGASVKMSCKASGYTFTSYNMHWVKQTPGQGLEWIGYIYPGNGATNYNQKFKGKATLTADPSSSTAYMQISSLTSEDSAVYFCARGDSVPFAYWGQGTLVTVSA
VL: QIVLTQSPAIMSASPGEKVTITCSAHSSVSFMHWFQQKPGTSPKLWIYSTSSLASGVPARFGGSGSGTSYSLTISRMEAEDAATYYCQQRSSFPLTFGAGTKLELKR
The molecule B1 yielded an IC50, colony formation assay on Caov-3 cells in experiment [1] of 800 pM. In addition, the Kd in experiment [2] was 3.9 nM.

B2: huDS6v1.01−SPDB−DM4コンジュゲート (antibody, from another filing, human IgG1, V domains shown)
VH: B1 VH with Y3Q, Q5V, L11V, R13K, S14P, K65Q, P74T
VL: B1 VL with Q1E, I10T, K18R, R76S
In experiment [1], B2 yielded an IC50, in vitro cytotoxicity (MTT) on WISH cells of 0.44 nM.

B3: DS6のキメラ型 (chimeric DS6, human constant regions and murine variable regions) (antibody, from another filing, V domains shown)
VH: B1 VH
VL: B1 VL
As usually defined, the EC50 is the concentration needed to bring the measured effect to its halfway point. The molecule B3 showed an EC50 in experiment [3] of 1.7 nM. In addition, the Kd in experiment [4] came out at 0.69 nM.

B4: ヒト化DS6 1.21型 (humanized DS6 version 1.21) (antibody, from another filing, V domains shown)
VH: B1 VH with Y3Q, Q5V, L11V, R13K, S14P, K65Q
VL: B1 VL with Q1E, I10T, K18R, R76S
B4 gave an EC50 in experiment [3] of 1.9 nM. In experiment [4], the Kd was 0.85 nM.

B5: ヒト化DS6 1.01型 (humanized DS6 version 1.01) (antibody, from another filing, V domains shown)
VH: B1 VH with Y3Q, Q5V, L11V, R13K, S14P, K65Q, P74T
VL: B1 VL with Q1E, I10T, K18R, R76S
In experiment [3], B5 registered an EC50 of 3 nM. The Kd in experiment [4] worked out at 0.82 nM.
